For the assay, the target named is OXA-48酶抗原 (recombinant OXA-48 enzyme antigen) (UniProt Q6XEC0). As to the kind of experiment: indirect ELISA, OXA-48 antigen coated at 100 ng per well, goat anti-rabbit IgG-HRP, OD450.
UniProt Q6XEC0, sequence (Q6XEC0 23-265 limits assumed): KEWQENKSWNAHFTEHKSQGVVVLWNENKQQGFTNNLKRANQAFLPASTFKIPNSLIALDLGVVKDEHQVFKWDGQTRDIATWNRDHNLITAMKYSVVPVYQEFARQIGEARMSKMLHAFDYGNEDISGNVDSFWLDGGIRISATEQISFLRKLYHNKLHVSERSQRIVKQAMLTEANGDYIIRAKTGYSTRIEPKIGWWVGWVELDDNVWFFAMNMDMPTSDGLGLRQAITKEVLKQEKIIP

B1: 第二单克隆抗体 (second anti-OXA-48 enzyme monoclonal antibody) (antibody, V domains shown)
VH: EVQLVESGGGLVKPGGSLRLSCAASGFTFSGYWMHWVRQAPEKGLVWVAYINSDGSSTNYADSVKGRFTISRDNAKNTLFLQMNSLRAEDTAMYYCARGGGYSYGPFDYWGQGTSVTVSS
VL: QSVLTQPSSASTSPGSSVKLSCTGTSSDIGNNDYVSWYQQYMGRPPTNIIYDVSRRPSGVSDRFSGSIDRSSNTAFLTVNNVQADDEADYYCSSYAGSSNLVFGGGTKLTV
In the case of B1, the OD值 (OD450 at 1:1280000 dilution) was over 0.5 OD and the 效价 (ELISA titer) (dilution factor (1:x)) came to 1.28e+06.

B2: 第一单克隆抗体 (first anti-OXA-48 enzyme monoclonal antibody) (antibody, V domains shown)
VH: EVKLVESGGGLVQPGRSLRLSCATSGFTFADYSMTWVRQPPGKGLEWVGLIKRNAYGGTTEYAASVRGRFTISRDNSQSIAYLQMNTLRTEDTPAYYCLRGYSGYDWEGLDAFDVWGQGTMVTVSS
VL: DIVMSQSPSSLAVSLGEKVTINCKSGQSVLFTSNNKNYLAWYQQKPGQPPKLLISWASTRESGVPDRFSGSGSGTDFTLAISSVQAEDVAVYYCQQYYSPGPFTFGQGTKVEIK
For the molecule B2, the OD值 (OD450 at 1:1280000 dilution) was determined as 0.5 OD and the 效价 (ELISA titer) (dilution factor (1:x)) is 1.28e+06.

The values above are taken from CN115960237A.
